Test results published in patent US20130323302A1.

Target: recombinant VEGF (UniProt P15692)
Assay: cell-based or functional assay

recombinant VEGF, sequence (P15692 other isoform, or with tags, fused parts or gaps limits assumed): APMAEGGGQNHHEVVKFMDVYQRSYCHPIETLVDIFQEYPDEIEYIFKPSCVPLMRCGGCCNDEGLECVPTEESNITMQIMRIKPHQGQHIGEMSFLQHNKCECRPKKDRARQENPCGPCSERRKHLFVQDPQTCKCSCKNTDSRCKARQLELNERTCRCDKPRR

soluble Fms-related tyrosine kinase-1 (sFLT-1) protein, human, secreted by rAAV.sFlt-1-transduced 293 cells (from UniProt P17948 27-450)
inhibition of VEGF-induced proliferation of HUVECs (MTT assay), 40 µL conditioned medium from rAAV.sFlt-1-transduced 293 cells: 32%
